From patent KR20220059924A (dated 2022)

What was measured:
랫 Tie2 단백질 = molecular target: T1, 랫 Tie2 단백질 (rat, UniProt A0ABK0L6J5 19-1116); assay: flow cytometry, HEK293T cells transfected with rat Tie2
T1 construct: whole, on cells; also called rat Tie2

개 Tie2 단백질 = molecular target: T2, 개 Tie2 단백질 (dog, UniProt A0A8I3S0B4 27-1128); assay: flow cytometry, HEK293T cells transfected with dog Tie2
T2 construct: whole, on cells; also called dog Tie2

마우스 Tie2 단백질 = molecular target: T3, 마우스 Tie2 단백질 (mouse, UniProt Q02858 23-1122); assay: flow cytometry, HEK293T cells transfected with mouse Tie2
T3 construct: whole, on cells; also called mouse Tie2

Measured: binding result

T3 sequence (Q02858 23-1122): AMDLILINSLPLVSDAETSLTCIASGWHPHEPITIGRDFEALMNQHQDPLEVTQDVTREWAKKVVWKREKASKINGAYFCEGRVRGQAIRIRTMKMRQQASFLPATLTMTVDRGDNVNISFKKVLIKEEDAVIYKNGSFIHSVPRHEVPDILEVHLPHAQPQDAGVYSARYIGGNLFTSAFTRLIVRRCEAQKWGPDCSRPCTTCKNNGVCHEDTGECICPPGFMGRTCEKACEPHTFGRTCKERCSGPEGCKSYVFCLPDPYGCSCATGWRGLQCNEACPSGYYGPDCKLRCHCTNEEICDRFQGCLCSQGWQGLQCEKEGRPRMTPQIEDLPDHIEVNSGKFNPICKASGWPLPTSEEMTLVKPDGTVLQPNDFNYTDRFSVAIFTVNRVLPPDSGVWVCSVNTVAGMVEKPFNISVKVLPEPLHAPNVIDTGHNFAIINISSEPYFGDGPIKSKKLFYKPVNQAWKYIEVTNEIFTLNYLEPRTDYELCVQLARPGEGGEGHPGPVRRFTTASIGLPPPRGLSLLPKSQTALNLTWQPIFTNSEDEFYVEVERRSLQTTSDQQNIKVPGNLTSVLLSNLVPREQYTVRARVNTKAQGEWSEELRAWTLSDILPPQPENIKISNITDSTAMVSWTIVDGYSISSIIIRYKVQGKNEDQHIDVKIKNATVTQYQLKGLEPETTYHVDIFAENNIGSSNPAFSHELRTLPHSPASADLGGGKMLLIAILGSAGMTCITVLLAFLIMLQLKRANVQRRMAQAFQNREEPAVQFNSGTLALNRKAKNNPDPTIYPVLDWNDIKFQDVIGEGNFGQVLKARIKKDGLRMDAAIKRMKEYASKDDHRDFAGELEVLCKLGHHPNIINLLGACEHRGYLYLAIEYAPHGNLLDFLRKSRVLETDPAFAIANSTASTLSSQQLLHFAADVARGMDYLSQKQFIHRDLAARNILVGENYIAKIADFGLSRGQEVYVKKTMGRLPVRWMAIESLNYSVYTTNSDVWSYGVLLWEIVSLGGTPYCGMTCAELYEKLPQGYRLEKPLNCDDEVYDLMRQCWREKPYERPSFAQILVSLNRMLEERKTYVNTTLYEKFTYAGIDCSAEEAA

B1: Ang1mab2-1 (antibody, human IgG1, kappa, V domains shown)
VH: QVQLVESGGGVVQPGRSLRLSCAASGFTFSSYAMHWVRQAPGKGLEWVAVISYDGSNKYYADSVKGRFTISRDNSKNTLYLQMNSLRAEDTAVYYCARQYSGVFEYWGQGTLITVSS
VL: DIQMTQSPDSLAVSLGERATINCKSSQSVLYRSNNRNYLAWYQQKLGQPPQLLIYWASTRESGVPDRFSGSGSGADFTLTISSLQAEDVAVYYCQQYFSIPYTFGQGTKLEIKR
notes: also called 제2 기본 항체
no binding (tested: 5ug/ml): all assays above
